# Data: the DeepSol protein solubility set
# Assay: soluble on expression in E. coli; label from the status in PepcDB or PDB records
row,Sequence,soluble on expression in E. coli
1,MKLYLIGLGPGDPELLTLKALRLIQRLPVLFYPKEEGREPVALGIARPFLPEGKPLLPLPLFTGGDPKEAERARREAARRVREALSRYGEGGYLVLGDSLLYASPLNLLPHLEGVAVEAVPGISAHQLAAASLLKPIALGEEGFAAVTGLGPVDPEGLDRFQSVFVYKAKDLEALERAFPDREGWAFLRLGMPGERVLPLGAAKGVARDYWTLVGLWRKGGEG,soluble
2,GHEIKDIREDTMHAEFNALRAQVAINDGNPDEAERLAKLALEELPPGWFYSRIVATSVLGEVLHCKGELTRSLALMQQTEQMARQHDVWHYALWSLIQQSEILFAQGFLQTAWETQEKAFQLINEQHLEQLPMHEFLVRIRAQLLWAWARLDEAEASARSGIEVLSSYQPQQQLQCLAMLIQCSLARGDLDNARSQLNRLENLLGNGKYHSDWISNANKVRVIYWQMTGDKAAAANWLRHTAKPEFANNHFLQGQWRNIARAQILLGEFEPAEIVLEELNENARSLRLMSDLNRNLLLLNQLYWQAGRKSDAQRVLLDALKLANRTGFISHFVIEGEAMAQQLRQLIQLNTLPELEQHRAQRILREINQHHGA,soluble
3,MLPTTSSLQIGELAAGQALTLPIYHFKPSGKHSGPKVYIQANVHGAEVQGNAVIYQLMKQLERCDILGEITLVPLANPLGINQKSGEFTLGRFDPITGVNWNREYLNHAIDLPTWYKEHAELSDSELIQAYRSTLVEACQRRLRNDWGVTTGHRLAVNLQAMAHEADIVLDLHTGPKSCKHLYCPEYDIASAQFFAIPYTLVIPNSFGGAMDEAAFCPWWQLSEVAKVMGRDLEIAVSAFTLELASQERICLEDALVDAKGILAYLSHRGVIAEQVEPAKMRRFGCYLKDYKKYHAPMAGLVEYVAPVGEPLAAGETLVNLLRLDLYGSEQELTALSLPQDCVPILHFASASVHQGTELYKVMTNLFELPH,soluble
4,ASGSDENDVVIIGGGPGGYVAAIKAAQLGFKTTCIEKRGALGGTCLNVGCIPSKALLHSSHMYHEAKHSFANHGVKVSNVEIDLAAMMGQKDKAVSNLTRGIEGLFKKNKVTYVKGYGKFVSPSEISVDTIEGENTVVKGKHIIIATGSDVKSLPGVTIDEKKIVSSTGALALSEIPKKLVVIGAGYIGLEMGSVWGRIGSEVTVVEFASEIVPTMDAEIRKQFQRSLEKQGMKFKLKTKVVGVDTSGDGVKLTVEPSAGGEQTIIEADVVLVSAGRTPFTSGLNLDKIGVETDKLGRILVNERFSTNVSGVYAIGDVIPGPMLAHKAEEDGVACVEYLAGKVGHVDYDKVPGVVYTNPEVASVGKTEEQVKETGVEYRVGKFPFMANSRAKAIDNAEGLVKIIAEKETDKILGVHIMAPNAGELIHEAAIALQYDASSEDIARVCHAHPTMSEAIKEAAMATYDKPIHI,soluble
5,MAERRMFAKTIIDSDAFLDMPLSSQALYFHLAMRADDDGFINNPKKLQRMVGCGEDDLKLLMVKKFILVFESGVIVIKHWKIHNYIRSDRYKPTLYQEEKNQIVEKNSKAYTFKAESSVGGQPADYQRLPQESIVQSKLGQSQGSSSENDCLKMIYHFYEENGFGTLASKTSQDFKYWLQDFIQKGASQEEACQLILHALGIAVDRNKRNYGYVNAILKSWEQQNYLSVHEVLVNDKKQVLEHAPQMTEEYQELGF,not soluble
6,GPGSMTNPSNSNLQALREELCTPGLDQGHLFEGWPETVDECNERQIALLTDLYMFSNMYPGGVAQYIRNGHELLARESEEVDFAALEMPPLIFEAPSLHRRTAERTALENAGTAMLCKTVFVLVAGGLGERLGYSSIKVSLPVETATNTTYLAYYLRWAQRVGGKEVPFVIMTSDDTHDRTLQLLRELQLEVPNLHVLKQGQVFCFADSAAHLALDETGKLLRKPHGHGDVHSLIYNATVKRDVVPDSGDGTATAQPLVNDWLAAGYESIVFIQDTNAGATITIPISLALSAEHSLDMNFTCIPRVPKEPIGLLCRTKKNSGDPWLVANVEYNVFAEVSRALNKDGGDEVSDPTGFSPFPGSVNTLVFKLSSYVDRLRESHGIVPEFINPKYSDETRRSFKKPARIESLMQDIALLFSEDDYRVGGTVFERFSYQPVKNSLEEAAGLVAQGNGAYCAATGEAAFYELQRRRLKAIGLPLFYSSQPEVTVAKDAFGVRLFPIIVLDTMCASSGSLDDLARVFPTPEKVHIDQHSTLIVEGRVIIESLELYGALTIRGPTDSMALPHVVRNAVVRNAGWSVHAILSLCAGRDSRLSEVDRIRGFVLKKTAMAVMDCNTKGESEAGAPSGAADPAKL,soluble
7,MDELLKAIKTKIAEMKKIELTGFTNTETATAYFQEKEAILEGIVKTLETITVQETSEVEALKSTVKSLREEIKGQAKSPRELSRRELLYNLGKGIAAAWSGNHKVLADLAFSPNLKSDNWTNPKDVSWGERGWTVSKAALGEPMGNMSPNNEQFLINPIYETEIMSDVAKKSVMMSLVRHRPMLGPSIFLPTRDRGGVQLNWLTAYGQKIEGSKPKGAERVELKAYTLAGFIPWFDEFEEDVFVDLGAMFIDEFIETYGQEFDRQCLLADDDPFTGAMACADVTEVTIKGDTIDDLTWKDFRDAVYKVPAEERKDCSWFLNETVLNHIANIEDTTGRPIWRRPTEAMPGRLDLYPYHEVSILPQIADIGENQAFAVFMNPKRIQHGNRRGIELKKFDGTTESLEYGELFLRFRKRDGFLVPDRKTTWSSLGHN,not soluble
8,MSLRRTRIRFEAWTAENAHRYHSLAHALPQLGARRPTGLLLDEAGRAAIPFLRTGQFIIGLGDPAGSERNCVAAIWRLRDLALQEGCKLAFIQVGQSLMAVYNDLGLTVCPDRTAGTVCCFSEDYRMLRAFLKGEERLARKREGHHHHHH,not soluble
9,MSLGVLFSPPPASAYDGVEFLEFAVDEAVGARLGNWLKRLGFAEAGKHRSKEVQLLRQGDINIVLNAEPYSFGHNFFEAHGPSLCATALRVKDQQAALKRATAFRGQPFRGLVGPNECEVPAVRAPDGSLLYLVEQGTAGHTLYDTDFSLDNNATATGGLRRIDHMALALPAESLDSWVLFYKSLFDFAADDEVVLPDPYGLVKSRALRSQCGTLRLPLNISENRNTAIAHALSSYRGSGVHHIAFDCDDIFREVARAKLAGVPLLEIPLNYYDDLAARFDFDDEFLSELAYYNVLYDRDAQGGELFHVYTEPFEERFFFEIIQRKAGYAGYGAANVAVRLAAMAKARSGAARKEGHHHHHH,soluble
10,MGSDKIHHHHHHMKIGVNSYIVREMTGRGFSLDELNVDFVELGFDDAEIIKNDGEINMKILKDLSGLGIEFTIHAPTSDGKNFPIDFGEYFPIDLGTYRKTPIIKRMKKIIKVAEYLDASVIVVHGGDIKESYTKAYVNTLRNLRELKPITEDSGVKIVVENLFEGRIGALPHEVLSFAKEGFEVCFDIGHAFLTAIRTGLRVDEFEMLFPYTTHLHLHDNNGFRDEHKPIGEGIIGFSYVERVLELTNPERAVLEIRRYNKENSVLLNVEVLQEISRDFSQMKRLTEVVEP,not soluble
11,GSHNATSGHEDMPVERILEAELAVEPKTESYGDMNMENSTNDPVTNICHAADKQLFTLVEWAKRIPHFSDLTLEDQVILLRAGWNELLIASFSHRSVSVQDGILLATGLHVHRSSAHSAGVGSIFDRVLTELVSKMKDMQMDKSELGCLRAIVLFNPDAKGLSNPSEVETLREKVYATLEAYTKQKYPEQPGRFAKLLLRLPALRSIGLKCLEHLFFFKLIGDTPIDTFLMEMLETPLQIT,soluble
12,MGSDKIHHHHHHMRIGVIGLGRIGTIHAENLKMIDDAILYAISDVREDRLREMKEKLGVEKAYKDPHELIEDPNVDAVLVCSSTNTHSELVIACAKAKKHVFCEKPLSLNLADVDRMIEETKKADVILFTGFNRRFDRNFKKLKEAVENGTIGKPHVLRITSRDPAPPPLDYIRVSGGIFLDMTIHDFDMARYIMGEEVEEVFADGSVLVDEEIGKAGDVDTAVVVLRFKSGALGVIDNSRRAVYGYDQRIEVFGSKGRIFADNVRETTVVLTDEQGDRGSRYLYFFLERYRDSYLEELKTFIKNVKSGEPPAVSGEDGKMALLLGYAAKKSLEEKRSVKLEEVIG,not soluble
13,MQSSTEKELLTNASLTVSSDFASNLEGALPSQPITQANPRAEQTLMTTYMSSTTNQADPKTFEEQFVNLLGTFTPSQAVCNVSNVDCGTYVRGPETWSSCKLGTQAIAPNASYIQIRVQDKHSTMDRMNWKGPIEDTSPLMKSLTANFL,not soluble
14,MRIEEFDYELPEELIAKYPAVPRHSARLMVLNRKDQSIKHDTFINLPDYLEEGDLLVFNNTKVIPARLYGRKPTGGRVEVVLTDFIKPDEWKALIGGKKIRPGLVIEVAPDFKVEVLEHIEEGKFRVKLLGEEPLKLIDKYGHIPIPPYLKREEEPIDRVYYQTIFAKEKGAVASPTASLHFSEELLEKLKEKGINFAFITLHVSYGTFKPVKVERVEEHRVDPEYVKIPKETVEKIKETKEKGKRVVAVGTTVVRALETKPFEPFEGWTDLYIYPGFKFKVVDAMITNFHLPRSSLLILVSAFAGREFILKAYREAVEKRYRFYSYGDGMLIL,soluble
15,MQRIETRKVKVGSVYVGGDSRVTVQSMTNTDTRDSKKTIEQIKKLEIAGCDIVRCAVPDFDAASSLSEITKNVKLPVVADIHFDYRLALEAIKNGVSALRINPGNIGSKERVELVAKSAKEKNIPIRIGVNSGSLEKDILNKYKRVCSEALVESALNHVKILEDVNFNDIVISIKSSNVQMMIDSYRLISKEVNYPLHLGVTEAGTIWRGTIKSSIGIGTLLSEGIGDTIRVSLTGDPVEEVKVGREILKTFGYLKSGVEFISCPTCGRTSIDLIKIANEVEKRLEKTNKSIKVAVMGCVVNGPGEAREADIGIAGGKGEGLIFKKGEIIKKVKEENLVDELMREIDNMLEHHHHHH,not soluble
16,MLMDGHTHTELCPHGSGEATEKMIQRAIQLGFQRYCITEHAPLPPAFRDQYEGTPAGYTEASLRENQVADYLALANGLKTKYAGQIEISVGFEVDFLPEHVAWTRDFLNTYGPRTQESILSVHFMRGLRQHFWCVDMSTDDFAAGFGQWLKTPQRVFEQYYQTVLASVQADLGPYAPQRIGHMSLVRKYQDYFGLTEPLDVHNLQLVDQTLALVKQQRRQLDLNLAGLYKPYCNDFYPGEQILQRAQKLDIPLVYGSDAHDIASVGRGYHLIKKLIEGLEHHHHHH,not soluble
17,MGSDKIHHHHHHMSIVDKFGEKVGEIAENDPVKARKLLLAGYRLQEKRLALFPDRKLPMSGQYVAKIVMNNIIQALAKPENAAMVSIFVPGELLTAAGLTPYSVEALSCFIAGTKCEQAFLRQTEKEGFPETMCSYHRVFLGAALNGIVPKPKCMVYTNLACDGNMMTFPYLKERYEIPSFYIDVPYEKNYDSVMYVAKQLRELKSFLQDVTGREITEESVKKAVDKSKIASNNYYRQLHLRKGHDIASTLTNELYALFMCHLLAGTDESVRYTQLLRDDVRRAPAGDGFHVLWMHTMPFLQDAVKDVFNYSDTIHISASDFIADGFRSMESDDPYEALAEKMVYCIYNGSVNQRIDEAKELADTVGADGAVLFAHWGCKNTIGASSLIKRSLEREGLPTMVLDGDGCNPANASDGQISTRLQAFVEMLTEQERN,not soluble
18,MKKGCKYGTHRVIEPAGVLPQPAKKISNDMEIFSNEILIDVIALNIDSASFTQIEEEAGHDVEKVKAKIKEIVAERGKMQNPVTGSGGMLIGTVEKIGDDLVGKTDLKVGDKIATLVSLSLTPLRIDEIINIKPEIDRVEIKGKAILFESGIYAVLPKDMPENLALAALDVAGAPAQVAKLVKPCQSVAILGSAGKSGMLCAYEAVKRVGPTGKVIGVVRNDKEKALLQRVSDKVKIVIADATKPMDVLHAVLEANDAKEVDVAINCVNVPNTEMSTILPVKEFGIAYFFSMATGFSKAALGAEGVGKDITMIVGNGYTVDHAAITLEELRESAVLREIFNEIYLLEHHHHHH,soluble
